Laboratory results taken from the RNAGym collection of RNA variant scans (doi:10.7554/elife.80360).

B1: Hairpin Ribozyme (parent)
chain: GUCCUCUUUCACGUGCGCGUGAAAGAGAGAAGUGAACCAGAGAAACACACGUUGUGGUAUAUUACCUGGUA

Variants of: B1
Experiment: self-cleavage, relative activity (ratio to wild type); higher = more cleavage; co-transcriptional

Row | Variant | self-cleavage
1 | GUCCUCUUUGACGUGCGCGUGAAAGAGAGAAGUGAACCAGAGAAACACACGUUGUGGGAUAUUACCUGGUA | 0.441
2 | GUCCUCUUUGACGUGCGCGUGAAAGAGAGAAGUGAACCAGAAAAACACACGUUGUGGUAUAUUACCUGGUA | 0.185
3 | GUCCUCUUUGACGUGCGCGUGAAAGAGAGAAGUGAACCAAAGAAACACACGUUGUGGUAUAUUACCUGGUA | 0.194
4 | GUCCUCUUUGACGUGCGCGUGAAAGAGAGAAGUGAACCAUAGAAACACACGUUGUGGUAUAUUACCUGGUA | 0.161
5 | GUCCUCUUUUUCGUGCGCGUGAAAGAGAGAAGUGAACCAGAGAAACACACGUUGUGGUAUAUUACCUGGUA | 0.577
6 | GUCCUCUUUGACGUGCGCGUGAAAGAGAGAUGUGAACCAGAGAAACACACGUUGUGGUAUAUUACCUGGUA | 0.084
7 | GUCCUCUUUGACGUGCGCGUGAAAGAGAGAAGUGAACCAGAGAAACACACGUUGUGGUAUAUUACAUGGUA | 0.0906
8 | GUCCUCUUUUACGUGCGCGUGAAAGGGAGAAGUGAACCAGAGAAACACACGUUGUGGUAUAUUACCUGGUA | 0.722
9 | GUCCUCUUUGACGUGCGCGUGAAAGAGAGAAGUGAACCAGAGAAACACACGUUUUGGUAUAUUACCUGGUA | 0.471
10 | GUCCUCUUUUACGUGCGCGUGAAAGAGAGAAGUGAACCAGAGAGACACACGUUGUGGUAUAUUACCUGGUA | 0.117
11 | GUCCUCUUUUACGUGCGCGUGAAAGAGAGAAGUGAACCAGAGAUACACACGUUGUGGUAUAUUACCUGGUA | 0.187
12 | GUCCUCUUUGACGUGCGCGUGAAAGAGAGAAGUGAACCAGGGAAACACACGUUGUGGUAUAUUACCUGGUA | 0.734
13 | GUCCUCUUUGACGUGCGCGUGAAAGAGAGAAGUGAACCAGUGAAACACACGUUGUGGUAUAUUACCUGGUA | 1.09
14 | GUCCUCUUUGACGUGCGCGUGAAAGAGAGAAGUGAACCAGCGAAACACACGUUGUGGUAUAUUACCUGGUA | 0.777
15 | GUCCUCUUUGAUGUGCGCGUGAAAGAGAGAAGUGAACCAGAGAAACACACGUUGUGGUAUAUUACCUGGUA | 0.503
16 | GUCCUCUUUGAGGUGCGCGUGAAAGAGAGAAGUGAACCAGAGAAACACACGUUGUGGUAUAUUACCUGGUA | 0.477
17 | GUCCUCUUUGACGUGCGCGUGAAAGAGAGAAGUGAACCAGAGAAACUCACGUUGUGGUAUAUUACCUGGUA | 0.175
18 | GUCCUCUUUGACGUGCGCGUGAAAGAGAGAAGUGAACCAGAGAAACGCACGUUGUGGUAUAUUACCUGGUA | 0.177
19 | GUCCUCUUUUACGUGCGCGUGAAAGAGAGAAGUGUACCAGAGAAACACACGUUGUGGUAUAUUACCUGGUA | 0.568

Row | Variant | self-cleavage
20 | GUCCUCUUUUACGUGCGCGUGAAAGAGAGAAGUGGACCAGAGAAACACACGUUGUGGUAUAUUACCUGGUA | 0.689
21 | GUCCUCUUUGACGUGCGCGUGAAAGAGAGAAGUGAACCAGAGAAACACACGUUGUGUUAUAUUACCUGGUA | 0.243
22 | GUCCUCUUUGACGUGCGCGUGAAAGAGAGAAGAGAACCAGAGAAACACACGUUGUGGUAUAUUACCUGGUA | 0.138
23 | GUCCUCUUUUACGUGCGCGUGAAAGAGAGAAGUGAUCCAGAGAAACACACGUUGUGGUAUAUUACCUGGUA | 0.487
24 | GUCCUCUUUGACGUGCGCGUGAAAGAGAGAAGUGAACCAGAGAAACACACGUGGUGGUAUAUUACCUGGUA | 0.632
25 | GUCCUCUUUGACGUGGGCGUGAAAGAGAGAAGUGAACCAGAGAAACACACGUUGUGGUAUAUUACCUGGUA | 0.559
26 | GUCCUCUUUGACGUGCGCGUGAAAGAGAGAAGUAAACCAGAGAAACACACGUUGUGGUAUAUUACCUGGUA | 0.978
27 | GUCCUCUUUGACGUGCGUGUGAAAGAGAGAAGUGAACCAGAGAAACACACGUUGUGGUAUAUUACCUGGUA | 0.842
28 | GUCCUCUUUUACGUGCGCGUGAAAGAGCGAAGUGAACCAGAGAAACACACGUUGUGGUAUAUUACCUGGUA | 0.305
29 | GUCCUCUUUGACUUGCGCGUGAAAGAGAGAAGUGAACCAGAGAAACACACGUUGUGGUAUAUUACCUGGUA | 0.528
30 | GUCCUCUUUGACGUGCGCGUGAAAGAGAGAAGUGAACCAGAGAAACACAUGUUGUGGUAUAUUACCUGGUA | 0.344
31 | GUCCUCUUUGACGUGCGCGUGAAAGAGAGAAGUGAACCAGAGAAACACAGGUUGUGGUAUAUUACCUGGUA | 0.142
32 | GUCCUCUUUGACGUGCGCGUGAAAGAGAGAAGUGAACCAGAGAAACACACGUUGCGGUAUAUUACCUGGUA | 0.16
33 | GUCCUCUUUGACGUGCGCGUGAAAGAUAGAAGUGAACCAGAGAAACACACGUUGUGGUAUAUUACCUGGUA | 0.195
34 | GUCCUCUUUGACGUGCGCGUGAAACAGAGAAGUGAACCAGAGAAACACACGUUGUGGUAUAUUACCUGGUA | 0.358
35 | GUCCUCUUUGACGUGCGCGUGGAAGAGAGAAGUGAACCAGAGAAACACACGUUGUGGUAUAUUACCUGGUA | 0.649
36 | GUCCUCUUUGACGUGCGCGUGAAAGAGAGAAGUGAACCAGAGAAACACACGUUGUGGUAUGUUACCUGGUA | 0.233
37 | GUCCUCUUUGACGUGCGCGUGAAAGAGAGAAGUGAACCAGAGAAACACACGAUGUGGUAUAUUACCUGGUA | 0.705
38 | GUCCUCUUUGACGUGCGCGUGAAAGAGAGAAGUGAACCAGAGAAACACACGCUGUGGUAUAUUACCUGGUA | 0.536
